Assay results from patent US20150246947A1 (BAXALTA, published 2015).
Values joined by “and” are separate entries in the source; they are usually repeats but may differ in a detail not shown here. Identical values can stand only once. Positions of bridges follow the written chain, without caps; N, C: chain ends.

T1: human Protein S (UniProt P07225 42-676)
T1 chain: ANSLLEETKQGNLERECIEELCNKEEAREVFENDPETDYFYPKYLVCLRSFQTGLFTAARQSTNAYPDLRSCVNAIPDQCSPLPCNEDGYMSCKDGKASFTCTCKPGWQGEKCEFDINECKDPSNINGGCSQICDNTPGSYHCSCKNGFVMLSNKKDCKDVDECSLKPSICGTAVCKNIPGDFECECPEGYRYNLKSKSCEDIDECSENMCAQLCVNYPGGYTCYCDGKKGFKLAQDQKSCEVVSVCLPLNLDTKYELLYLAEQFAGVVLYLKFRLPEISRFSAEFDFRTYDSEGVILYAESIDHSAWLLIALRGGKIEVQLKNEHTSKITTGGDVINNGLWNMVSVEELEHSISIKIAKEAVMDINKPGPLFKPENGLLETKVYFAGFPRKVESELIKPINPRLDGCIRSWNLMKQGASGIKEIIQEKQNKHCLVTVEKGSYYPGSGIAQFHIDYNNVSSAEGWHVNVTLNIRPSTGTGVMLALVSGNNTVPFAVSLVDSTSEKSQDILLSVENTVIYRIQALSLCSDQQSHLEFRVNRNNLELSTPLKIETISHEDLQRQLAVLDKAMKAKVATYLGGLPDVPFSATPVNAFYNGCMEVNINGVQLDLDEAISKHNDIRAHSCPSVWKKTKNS

B1: JBS3160 (peptide)
chain: Ac-CGLVSAGWYDYNFCDHYREFT-NH2
modifications: disulfide 1-14
SMILES: CC(=O)N[C@H]1CSSC[C@@H](C(=O)N[C@@H](CC(=O)O)C(=O)N[C@@H](Cc2c[nH]cn2)C(=O)N[C@@H](Cc2ccc(O)cc2)C(=O)N[C@@H](CCCNC(=N)N)C(=O)N[C@@H](CCC(=O)O)C(=O)N[C@@H](Cc2ccccc2)C(=O)N[C@H](C(N)=O)[C@@H](C)O)NC(=O)[C@H](Cc2ccccc2)NC(=O)[C@H](CC(N)=O)NC(=O)[C@H](Cc2ccc(O)cc2)NC(=O)[C@H](CC(=O)O)NC(=O)[C@H](Cc2ccc(O)cc2)NC(=O)[C@H](Cc2c[nH]c3ccccc23)NC(=O)CNC(=O)[C@H](C)NC(=O)[C@H](CO)NC(=O)[C@H](C(C)C)NC(=O)[C@H](CC(C)C)NC(=O)CNC1=O
B2: JBS3162 (peptide)
chain: Ac-TCLVSAGWYDCYNFDHYREFT-NH2
modifications: disulfide 2-11
SMILES: CC(=O)N[C@H](C(=O)N[C@H]1CSSC[C@@H](C(=O)N[C@@H](Cc2ccc(O)cc2)C(=O)N[C@@H](CC(N)=O)C(=O)N[C@@H](Cc2ccccc2)C(=O)N[C@@H](CC(=O)O)C(=O)N[C@@H](Cc2c[nH]cn2)C(=O)N[C@@H](Cc2ccc(O)cc2)C(=O)N[C@@H](CCCNC(=N)N)C(=O)N[C@@H](CCC(=O)O)C(=O)N[C@@H](Cc2ccccc2)C(=O)N[C@H](C(N)=O)[C@@H](C)O)NC(=O)[C@H](CC(=O)O)NC(=O)[C@H](Cc2ccc(O)cc2)NC(=O)[C@H](Cc2c[nH]c3ccccc23)NC(=O)CNC(=O)[C@H](C)NC(=O)[C@H](CO)NC(=O)[C@H](C(C)C)NC(=O)[C@H](CC(C)C)NC1=O)[C@@H](C)O
B3: JBS3171 (peptide)
chain: Ac-TCLVSAGWYDYNCDHYREFT-NH2
modifications: disulfide 2-13
SMILES: CC(=O)N[C@H](C(=O)N[C@H]1CSSC[C@@H](C(=O)N[C@@H](CC(=O)O)C(=O)N[C@@H](Cc2c[nH]cn2)C(=O)N[C@@H](Cc2ccc(O)cc2)C(=O)N[C@@H](CCCNC(=N)N)C(=O)N[C@@H](CCC(=O)O)C(=O)N[C@@H](Cc2ccccc2)C(=O)N[C@H](C(N)=O)[C@@H](C)O)NC(=O)[C@H](CC(N)=O)NC(=O)[C@H](Cc2ccc(O)cc2)NC(=O)[C@H](CC(=O)O)NC(=O)[C@H](Cc2ccc(O)cc2)NC(=O)[C@H](Cc2c[nH]c3ccccc23)NC(=O)CNC(=O)[C@H](C)NC(=O)[C@H](CO)NC(=O)[C@H](C(C)C)NC(=O)[C@H](CC(C)C)NC1=O)[C@@H](C)O
B4: JBS3168 (peptide)
chain: Ac-TGLCVSAGWYDYNCDHYREFT-NH2
modifications: disulfide 4-14
SMILES: CC(=O)N[C@H](C(=O)NCC(=O)N[C@@H](CC(C)C)C(=O)N[C@H]1CSSC[C@@H](C(=O)N[C@@H](CC(=O)O)C(=O)N[C@@H](Cc2c[nH]cn2)C(=O)N[C@@H](Cc2ccc(O)cc2)C(=O)N[C@@H](CCCNC(=N)N)C(=O)N[C@@H](CCC(=O)O)C(=O)N[C@@H](Cc2ccccc2)C(=O)N[C@H](C(N)=O)[C@@H](C)O)NC(=O)[C@H](CC(N)=O)NC(=O)[C@H](Cc2ccc(O)cc2)NC(=O)[C@H](CC(=O)O)NC(=O)[C@H](Cc2ccc(O)cc2)NC(=O)[C@H](Cc2c[nH]c3ccccc23)NC(=O)CNC(=O)[C@H](C)NC(=O)[C@H](CO)NC(=O)[C@H](C(C)C)NC1=O)[C@@H](C)O

Biological target: T1, human Protein S
Assay: LANCE competition
Outline: (§1)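 This homogeneous time-resolved FRET competition assay (LANCE) used europium-labelled Protein S, ULight-labelled streptavidin and a biotinylated tracer peptide, with unlabelled test peptide titrated in three-fold steps. Final concentrations were 10 nM Protein S, 100 nM streptavidin and 300 nM tracer in 50 µl (or 2 nM Protein S and 60 nM tracer on a Tecan F500). Samples were incubated 1 hour at room temperature and read at Ex 340 nm, Em 665 nm. IC50 came from non-linear regression of the 665 nm signals.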

| IC50 | Binder |
| --- | --- |
| 4.4 nM and 5.5 nM | Ac-TGLVSAGWYDYNFDHYMEFT-NH2 [JBS2810] |
| 16.4 nM | Ac-TGHVSAGWYDYNSDHYREFT-NH2 [JBS2659] |
| 20.1 nM | TGLVSAGWYDYNFDHYREFTC [JBS2713] |
| 4.4 nM | Ac-TGLVSAGWYDYNFDTYREFT-NH2 [JBS2885] |
| 16.4 nM | Ac-TGLVEAGWYDYNFDHYREFT-NH2 [JBS2740] |

Biological target: T1, human Protein S
Assay: LANCE competition
Remark: another data set of the same source
Outline: as §1

| IC50 [nM] | Binder |
| --- | --- |
| 1.3 | Ac-EYYVSAGWYDYNTDRYYEFY-NH2 [JBS3238] |
| 1.3 | Ac-EYYVSAGWYDYNDDKYYEFE-NH2 [JBS3217] |
| 2.7 | Ac-EYYVSAGWYDYNADTYYEFE-NH2 [JBS3234] |
| 9.5 | Ac-TGLVSAGWYDYNFDHYREF-NH2 [JBS3181] |
| 981 | B1 |
| 20.9 | Ac-GLVSAGWYDYNFDHYREF-NH2 [JBS3182] |
| 2.3 | Ac-SATVSAGWYDYNKDVYFEFE-NH2 [JBS3273] |
| 7.2 | Ac-SGLVSAGWYDYNFDSYREFT-NH2 [JBS3185] |
| 3.5 | Ac-EYTVSAGWYDYNKDTYEEFK-NH2 [JBS3220] |
| 2 | Ac-EYYVSAGWYDTNNDRYYEFI-NH2 [JBS3239] |
| 1510 | B2 |
| 67.8 | Ac-EYYVSAGWHDYNKDIYFEFF-NH2 [JBS3242] |
| 336 | B3 |
| 1.3 | Ac-EYYVSAGWYDYNNDTYNEFW-NH2 [JBS3243] |
| 1.9 | Ac-EYYVSAGWYNYEEDSYYEFE-NH2 [JBS3247] |
| 0.6 | Ac-QYYVVAGWYDYNTDSYYEFD-NH2 [JBS3251] |
| 604 | B4 |

| IC50 [nM] | Binder |
| --- | --- |
| 1.2 | Ac-EYYVSAGWYDYNNDIYLEFE-NH2 [JBS3241] |
| 14.6 | Ac-DDEVSIGWYDYNTDEYVEFW-NH2 [JBS3295] |
| 1.3 | MEYYVSAGWYDYNTDTYYEFE [JBS3224] |
| 1.5 | Ac-EYYVSAGWYDYNTDKYYEFI-NH2 [JBS3237] |
| 2 | Ac-EYYVSAGWYDYNNDIYYEFI-NH2 [JBS3240] |
| 2 | Ac-EYYVSAGWYDYNSDTYFEFI-NH2 [JBS3245] |
| 208 | Ac-TCLVSAGWYDYNFDCYREFT-NH2 (disulfide 2-15 (inferred); not fully specified) [JBS3173] |
| 3.7 | Ac-YGLVSAGWYDYNFDHYREFT-NH2 [JBS2928] |
| 9 | Ac-GLVSAGWYDYNFDHYREFT-NH2 [JBS3180] |
| 22.7 | Ac-TYYVSAGWYGYNNDRYYEFY-NH2 [JBS3250] |
| 2.2 | Ac-EYYVSAGWYDYEHDTYLEFY-NH2 [JBS3246] |
| 0.8 | MEYYVSAGWYDYNTDTYYEFE [JBS3215] |
| 544 | TGCLVSAGWYDYNCDHYREFT [JBS3169] |
| 812 | CGLVSAGWYDCYNFDHYREFT [JBS3157] |
| 206 | CGLVSAGWYDYNCDHYREFT [JBS3170] |
| 1.4 | Ac-TGLVSAGWYDYNFDHYYEFT-NH2 [JBS2941] |
| 55.2 | CGLVSAGWYDYNFDCYREFT [JBS3172] |
